We go through two molecules from publication PMC11365994 (Communications Biology, 2024).

For the test, the target named is T1, falcilysin E132Q single mutant (residues 59-1193) (Plasmodium falciparum, UniProt Q76NL8 59-1193, E132Q).
T1 sequence (looked up): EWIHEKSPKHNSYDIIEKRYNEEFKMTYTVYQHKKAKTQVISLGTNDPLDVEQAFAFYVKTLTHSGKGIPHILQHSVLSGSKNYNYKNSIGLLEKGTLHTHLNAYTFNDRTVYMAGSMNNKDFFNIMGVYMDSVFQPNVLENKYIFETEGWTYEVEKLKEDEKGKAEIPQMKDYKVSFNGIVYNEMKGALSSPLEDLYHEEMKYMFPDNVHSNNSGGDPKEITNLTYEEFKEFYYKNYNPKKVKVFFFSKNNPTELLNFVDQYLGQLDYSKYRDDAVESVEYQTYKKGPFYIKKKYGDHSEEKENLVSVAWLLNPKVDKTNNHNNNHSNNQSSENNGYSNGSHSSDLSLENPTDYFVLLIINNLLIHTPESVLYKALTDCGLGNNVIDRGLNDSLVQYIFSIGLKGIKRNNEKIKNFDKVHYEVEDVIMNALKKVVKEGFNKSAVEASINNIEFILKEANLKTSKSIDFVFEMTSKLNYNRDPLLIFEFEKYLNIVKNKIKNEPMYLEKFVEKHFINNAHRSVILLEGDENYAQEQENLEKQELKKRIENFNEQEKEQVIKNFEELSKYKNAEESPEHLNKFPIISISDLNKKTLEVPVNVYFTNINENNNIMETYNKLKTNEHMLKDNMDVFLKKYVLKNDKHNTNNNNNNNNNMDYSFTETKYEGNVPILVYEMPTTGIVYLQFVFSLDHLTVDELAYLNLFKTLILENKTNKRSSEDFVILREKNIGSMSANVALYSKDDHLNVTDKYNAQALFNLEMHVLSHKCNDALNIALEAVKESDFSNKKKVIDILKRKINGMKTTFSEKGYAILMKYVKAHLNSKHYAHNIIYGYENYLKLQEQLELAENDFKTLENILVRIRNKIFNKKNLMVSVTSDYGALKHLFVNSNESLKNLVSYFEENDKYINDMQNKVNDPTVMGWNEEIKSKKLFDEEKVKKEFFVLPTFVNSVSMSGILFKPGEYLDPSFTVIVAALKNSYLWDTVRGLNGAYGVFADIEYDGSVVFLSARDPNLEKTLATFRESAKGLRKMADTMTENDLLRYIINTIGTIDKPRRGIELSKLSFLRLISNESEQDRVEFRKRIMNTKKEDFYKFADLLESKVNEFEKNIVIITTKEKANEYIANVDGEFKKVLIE
Description: ITC.

B1: hemoglobin β chain peptide (residues V33 to D47) (peptide)
peptide: VVYPWTQRFFESFGD
Turning to B1, the Kd worked out at 499 nM.

B2: hemoglobin α chain peptide (residues L34 to D47) (peptide)
peptide: LSFPTTKTYFPHFD
As for B2, the Kd was found to be 933 nM.
